The record followed here is paper PMC9019020, “Low complexity RGG-motif sequence is required for Processing body (P-body) disassembly” (Nature Communications, 2022).

This test has as its target T1, His-Edc3-mCherry (S. cerevisiae, UniProt P39998 1-551).
T1 construct: Edc3, P-body protein of S. cerevisiae with Lsm, FDF and YjeF-N domains; full length; also called full-length Edc3; purified Edc3; source: E. coli BL21, purified (Ni-NTA agarose, batch; RNase A added during purification); not shown: His, N-terminal, kept; mCherry, C-terminal, kept
T1 sequence (looked up): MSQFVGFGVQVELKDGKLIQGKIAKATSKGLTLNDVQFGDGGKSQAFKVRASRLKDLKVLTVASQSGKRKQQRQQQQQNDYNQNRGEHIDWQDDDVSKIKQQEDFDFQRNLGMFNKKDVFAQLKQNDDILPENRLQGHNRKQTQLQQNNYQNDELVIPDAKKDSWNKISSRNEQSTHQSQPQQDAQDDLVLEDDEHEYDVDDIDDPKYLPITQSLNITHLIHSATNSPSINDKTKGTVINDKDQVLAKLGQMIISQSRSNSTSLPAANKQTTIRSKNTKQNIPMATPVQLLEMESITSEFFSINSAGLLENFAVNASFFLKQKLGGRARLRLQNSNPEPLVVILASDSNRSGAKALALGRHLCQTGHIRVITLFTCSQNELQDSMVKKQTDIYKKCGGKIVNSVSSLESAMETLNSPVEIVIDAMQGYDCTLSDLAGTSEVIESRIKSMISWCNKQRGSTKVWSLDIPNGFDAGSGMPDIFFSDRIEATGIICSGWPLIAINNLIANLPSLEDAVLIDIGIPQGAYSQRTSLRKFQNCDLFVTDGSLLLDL
As to the kind of experiment: pull-down; RFP magnetic agarose beads (Chromotek) capture Edc3-mCherry; 100 pmol of each purified protein; 4 °C, 2 h; 50 mM HEPES pH 7, 100 mM NaCl, 1 mM DTT, 2 mM MnCl2, 2 mM MgCl2, 1% Triton-X100, 10% glycerol, 0.25 mg/mL RNase A; western blot. Particulars: both partners purified. Background: Immunoblotting shows a protein as a band on a membrane.

B1: His-Sbp1-FLAG (natural protein, S. cerevisiae, UniProt P10080 1-294, looked up)
chain: MSAEIEEATNAVNNLSINDSEQQPRAPTHKTVIDPEDTIFIGNVAHECTEDDLKQLFVEEFGDEVSVEIPIKEHTDGHIPASKHALVKFPTKIDFDNIKENYDTKVVKDREIHIKRARTPGQMQRGGFRGRGGFRGRGGFRGGFRGGYRGGFRGRGNFRGRGGARGGFNGQKREKIPLDQMERSKDTLYINNVPFKATKEEVAEFFGTDADSISLPMRKMRDQHTGRIFTSDSANRGMAFVTFSGENVDIEAKAEEFKGKVFGDRELTVDVAVIRPENDEEEIEQETGSEEKQE
notes: Sbp1, RGG-motif containing translation repressor of S. cerevisiae; wild type; also called wild-type Sbp1; purified Sbp1; source: E. coli BL21, purified (Ni-NTA agarose, batch; RNase A added during purification); not shown: His, N-terminal, kept; FLAG, C-terminal, kept
Take B1: the binding result is recorded as “binds”.
